Assay results as given in patent US20090149339A1.
Ends that are not written are not given here. * marks the point of attachment. Biotin = O=C1N[C@H]2[C@H](CS[C@H]2CCCCC(=O)*)N1

How the values were obtained:
[1] = biological target: GST-DLG1 PDZ domain fusion protein (human homolog of Drosophila discs large protein AA275-477; PDZ domains 1-2 of 3) (human) [GST: P08515]; experiment: G assay, peptide titrated on immobilized GST-PDZ, saturation fit (apparent affinity)
[2] = biological target: GST polypeptide alone (not a fusion protein) [GST: P08515]; experiment: G assay, immobilized GST alone (background control)
Sequence of GST polypeptide alone (not a fusion protein) [GST: P08515] (P08515 whole entry, the tested form may be a part): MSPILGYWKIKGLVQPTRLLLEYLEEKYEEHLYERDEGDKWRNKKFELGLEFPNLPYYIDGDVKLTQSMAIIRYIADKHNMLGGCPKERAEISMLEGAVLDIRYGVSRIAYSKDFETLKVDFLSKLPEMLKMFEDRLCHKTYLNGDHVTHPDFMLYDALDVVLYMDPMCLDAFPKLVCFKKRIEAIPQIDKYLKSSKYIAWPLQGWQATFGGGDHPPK

[3] = biological target: GST-NeDLG PDZ domain fusion protein (presynaptic protein sao102, neuroendocrine-dlg; PDZ domains 1-2 of 3) [GST: P08515]; experiment: G assay, peptide titrated on immobilized GST-PDZ, saturation fit (apparent affinity)
Sequence of GST-NeDLG PDZ domain fusion protein (presynaptic protein sao102, neuroendocrine-dlg; PDZ domains 1-2 of 3) [GST: P08515] (P08515 1-218, tags or fused parts left off): as the sequence (P08515 whole entry, the tested form may be a part) above

[4] = biological target: GST-PSD95 PDZ domain fusion protein (human post-synaptic density protein 95 AA387-724; PDZ domains 1-3 of 3) (human) [GST: P08515]; experiment: as above
Sequence of GST-PSD95 PDZ domain fusion protein (human post-synaptic density protein 95 AA387-724; PDZ domains 1-3 of 3) (human) [GST: P08515] (P08515 1-218, tags or fused parts left off): as the sequence (P08515 whole entry, the tested form may be a part) above

Sequence of GST-DLG1 PDZ domain fusion protein (human homolog of Drosophila discs large protein AA275-477; PDZ domains 1-2 of 3) (human) [GST: P08515] (P08515 1-218, tags or fused parts left off): as the sequence (P08515 whole entry, the tested form may be a part) above

Binder | Kd [1] [µM] | OD (binding to GST alone) [2] [OD units] | Kd [3] [µM] | Kd [4] [µM]
Biotin-KDITSDSENSNFRNEIQSLV [CD95 (Apo-1/Fas) C-terminal PL peptide AA13L, biotinylated] | 54 | – | – | –
ISGTPTSTMVHGMTSSSSVV (not fully specified) [CLASP-2 C-terminal PL peptide AA2L (C-terminal 20 amino acids), biotinylated] | – | < 0.2 | 7.5 | 45
